Experiment [1] deals with CHO-K1/SpyC_C-BLA cells. The experiment in a line: live-cell confocal microscopy of split β-lactamase complementation. The format is cell-based, Chinese hamster. To be noted: for cytosolic delivery and β-lactamase complementation signal by confocal microscopy: CHO-K1/SpyC_C-BLA cells, 4 µM protein, live cell confocal microscopy, Figure 3c–f. An excerpt: (a) Live-cell functional uptake can be measured when N-terminal β-lactamase (N-BLA), fused to a CPP sequence, penetrates the cell membrane to complement C-terminal β-lactamase protein (C-BLA) in the cytosol (step i). Expression of the split β-lactamase moieties as fusions with either SpyTag (CPP_N-BLA_SpyT) or SpyCatcher (SpyC_C-BLA) facilitates rapid formation of functional β-lactamase proteins through SpyT/SpyC ligation inside the cells (step ii). This internalization is detected after addition of dye substrate (step iii) through cleavage of cytosol-retained CCF2 (step iv), which is measured via a change in fluorescence signal from green (520 nm) to blue (450 nm). (b) Internalization of CPP_N-BLA_SpyT and β-lactamase complementation in CHO-K1/SpyC_C-BLA cells is dose-dependent, measured by CCF2 cleavage (increase in % blue viable cells as estimated by flow cytometry). […] Error bars represent standard error of the mean of two independent experiments (duplicate samples). […] Bar scale is 50 µm.
Successful complementation of β-lactamase was dose- and CPP-dependent, with a limit of detection of ≤1 µM of CPP_N-BLA_SpyT. β-Lactamase complementation and N-BLA fragment internalization was visually confirmed using live cell confocal microscopy in CHO-K1/SpyC_C-BLA cells treated with Phylomer CPP_N-BLA_SpyT proteins (Figure 3c–f). The fluorescence signal is detectable as early as 30 min (Figure S2a). Signal conversion over time was confirmed by imaging cells treated with 1746c27_N-BLA_SpyT at sequential time points (Figure S2b,c), thus completing validation of the split assay system.
Cells were seeded (CHO-K1, 37,500 cells/mL; T47D 37,500 cells/mL) onto 4-well ibiTreat chamber slides (Thermo Fisher Scientific) and incubated for 48 h at 37 °C, 5% CO2. The medium was removed and replaced with medium containing SpyC_BLA/CPP_SpyT conjugated or unconjugated SpyC_BLA proteins and cells were incubated for 2 h at 37 °C, 5% CO2. After incubation, the cells were washed to remove any SpyC_BLA protein that had not internalized, loaded with substrate CCF2-AM (2 µM final concentration in media containing 1% FCS), and incubated for 1 h at room temperature. Live cells were visualized through confocal microscopy. Images were collected using a Nikon C2 Confocal Microscope through a 40× differential interference contrast (DIC) objective after excitation by a 408 nm laser. Bar scales in images represent 50 µm or 14.6 µm (zoom magnification 3.4×).
Figure S2. Split β-lactamase assay time course.
Live cell confocal microscopy imaging the CPP-mediated cytosolic internalization of 1746c27_N-BLA_SpyT (8 µM) in CHO-K1/C-BLA cells at (a) 30 min, (b) 60 min, and (c) 120 min after addition of CCF2-AM dye. The β-lactamase complementation signal is detectable as early as 30 min and continues to convert over time. Repeated excitation over time results in photobleaching of the converted fluorescence resonance energy transfer (FRET) substrate. Bar scale is 50 µm. […]
(also on this page, place not known: De ad ( B) ( D) ( E) 1746c27_N-BLA_SpyT + CHO-K1/SpyC_C-BLA) […]

Experiment [2] relates to CHO-K1/SpyC_C-BLA cells. The experiment in a line: split β-lactamase cytosolic delivery assay (CCF2-AM, flow cytometry). Type of experiment: cell-based, Chinese hamster. To be noted: CHO-K1/SpyC_C-BLA stable cells, blue fluorescent cells after 1 h, two independent experiments, duplicate samples, Figure 3b. The source says:
SpyT/SpyC ligation enables specific covalent linkage of the split components when mixed together, thus reactivating β-lactamase activity. SpyC_C-BLA was selected for mammalian expression in stable cell lines, and N-BLA_SpyT was selected for CPP incorporation onto its N-terminus (CPP_N-BLA_SpyT). Constitutively expressed SpyC_C-BLA in the cytoplasm of stable cell lines can be complemented by CPP-delivered N-BLA_SpyT, thus forming functional β-lactamase.
In brief, CPP sequences are made as fusions to N-BLA_SpyT (CPP_N-BLA_SpyT, Figure 3a, step i). […] Cell penetrating peptide-dependent β-lactamase complementation and activity is detected by cleavage of the CCF2 substrate (Figure 3a, step iv). As in the full-length β-lactamase internalization assay, this reaction is measured as a shift in fluorescent signal from green to blue. […]
Successful complementation of β-lactamase was dose- and CPP-dependent, with a limit of detection of ≤1 µM of CPP_N-BLA_SpyT. β-Lactamase complementation and N-BLA fragment internalization was visually confirmed using live cell confocal microscopy in CHO-K1/SpyC_C-BLA cells treated with Phylomer CPP_N-BLA_SpyT proteins (Figure 3c–f). The fluorescence signal is detectable as early as 30 min (Figure S2a). […]
(In general: Flow cytometry measures light scatter and fluorescence of single cells or particles in a stream.)

B1: 1746_N-BLA_SpyT: phylomer CPP 1746 fused to N-terminal β-lactamase fragment and SpyTag (protein)
chain: MASPLKPKKPKTQEKKKKQPPKPKKPKTQEKKKKQPPKPKRASSGSHHHHHHGTGAGSGHPETLVKVKDAEDQLGARVGYIELDLNSGKILESFRPEERFPMMSTFKVLLCGAVLSRIDAGQEQLGRRIHYSQNDLVEYSPVTEKHLTDGMTVRELCSAAITMSDNTAANLLLTTIGGPKELTAFLHNMGDHVTRLDRWEPELNEAIPNDERDTTTPAAMATTLRKLLTGGGSASGGSGTGATSGAHIVMVDAYKPTKGGTGGS
modifications: left off: His6, internal (after the CPP, by the printed letters), state not stated
notes: phylomer CPP 1746 fused to N-terminal β-lactamase fragment and SpyTag
For the molecule B1, the “cytosolic delivery and β-lactamase complementation signal by confocal microscopy” value in experiment [1] is “cytosolic delivery”.

B2: 1746c27_N-BLA_SpyT: phylomer CPP 1746c27 fused to N-terminal β-lactamase fragment and SpyTag (protein)
chain: MASKKKKQPPKPKKPKTQEKKKKQPPKPKRASSGSHHHHHHGTGAGSGHPETLVKVKDAEDQLGARVGYIELDLNSGKILESFRPEERFPMMSTFKVLLCGAVLSRIDAGQEQLGRRIHYSQNDLVEYSPVTEKHLTDGMTVRELCSAAITMSDNTAANLLLTTIGGPKELTAFLHNMGDHVTRLDRWEPELNEAIPNDERDTTTPAAMATTLRKLLTGGGSASGGSGTGATSGAHIVMVDAYKPTKGGTGGS
modifications: left off: His6, internal (after the CPP, by the printed letters), state not stated
notes: phylomer CPP 1746c27 fused to N-terminal β-lactamase fragment and SpyTag
For the molecule B2, the “earliest time at which β-lactamase complementation signal is detectable” value in experiment [1] (8 µM in CHO-K1/C-BLA cells, time after addition of CCF2-AM dye, imaged at 30, 60, 120 min, Figure S2) amounted to 30 min. For the same molecule, in experiment [1], the “cytosolic delivery and β-lactamase complementation signal by confocal microscopy” value is reported as “cytosolic delivery”.

B3: 0084_N-BLA_SpyT: phylomer CPP 0084 fused to N-terminal β-lactamase fragment and SpyTag (protein)
chain: MASRKQKSLQTKLAENPPVPRKKRQSRPRWKQWLQKASSGSHHHHHHGTGAGSGHPETLVKVKDAEDQLGARVGYIELDLNSGKILESFRPEERFPMMSTFKVLLCGAVLSRIDAGQEQLGRRIHYSQNDLVEYSPVTEKHLTDGMTVRELCSAAITMSDNTAANLLLTTIGGPKELTAFLHNMGDHVTRLDRWEPELNEAIPNDERDTTTPAAMATTLRKLLTGGGSASGGSGTGATSGAHIVMVDAYKPTKGGTGGS
modifications: left off: His6, internal (after the CPP, by the printed letters), state not stated
notes: phylomer CPP 0084 fused to N-terminal β-lactamase fragment and SpyTag
For the molecule B3, the “cytosolic delivery and β-lactamase complementation signal by confocal microscopy” value in experiment [1] is on record as “cytosolic delivery”.

B4: N-BLA_SpyT: N-terminal β-lactamase fragment fused to SpyTag; No CPP negative control of split assay (protein)
chain: MGHHHHHHGATLEVLFQGPGGSQLHPETLVKVKDAEDQLGARVGYIELDLNSGKILESFRPEERFPMMSTFKVLLCGAVLSRIDAGQEQLGRRIHYSQNDLVEYSPVTEKHLTDGMTVRELCSAAITMSDNTAANLLLTTIGGPKELTAFLHNMGDHVTRLDRWEPELNEAIPNDERDTTMPAAMATTLRKLLTGGGSASGGSGTGATSGAHIVMVDAYKPTKGVDG
As to B4, in experiment [2], the “β-lactamase complementation signal (% blue viable cells)” value is “negligible effect”. The “cytosolic delivery and β-lactamase complementation signal by confocal microscopy” value in experiment [1] is listed as “minimal evidence of internalization”.

The values above are taken from publication PMC6163455 (Biomolecules, 2018).
